Data as given in patent publication US20260209320A1 (ALCHEMAB THERAPEUTICS, published 2026).

Key:
Peptide 1 [1] = target: T1, Peptide 1 (human, cyno); test: peptide microarray; Sp C1; IgG 1 µg/ml
T1 peptide: QQQQQQQQPPPPPPP

Peptide 18 = target: T2, Peptide 18 (cyno); test: peptide microarray; Sp C1; IgG 1 µg/ml
T2 peptide: QQQPPPPPPPPPPPP

Epitope 1 [2] = target: T3, Epitope 1 (human, cyno); test: peptide microarray; Sp C1; IgG 1 µg/ml
T3 peptide: QQQQPPPPPPPPPPP

Peptide 3 [3] = target: T4, Peptide 3 (human, cyno); test: peptide microarray; Sp C1; IgG 1 µg/ml
T4 peptide: QQQQQQPPPPPPPPP

Peptide 21 [4] = target: T5, Peptide 21 (cyno); test: peptide microarray; Sp C1; IgG 1 µg/ml
T5 peptide: AQPMLPQPQPPPPPP

Peptide 22 = target: T6, Peptide 22 (cyno); test: peptide microarray; Sp C1; IgG 1 µg/ml
T6 peptide: QPMLPQPQPPPPPPR

Peptide 2 [5] = target: T7, Peptide 2 (human, cyno); test: peptide microarray; Sp C1; IgG 1 µg/ml
T7 peptide: QQQQQQQPPPPPPPP

Peptide 4 = target: T8, Peptide 4 (human, cyno); test: peptide microarray; Sp C1; IgG 1 µg/ml
T8 peptide: QQQQQPPPPPPPPPP

Peptide 29 = target: T9, Peptide 29 (cyno); test: peptide microarray; Sp C2; IgG 10 µg/ml
T9 peptide: PMLPQPQPPPPPPPP

Peptide 1 [6] = target: T1, Peptide 1; test: peptide microarray; Sp C2; IgG 10 µg/ml
Peptide 28 = target: T10, Peptide 28 (cyno); test: peptide microarray; Sp C2; IgG 10 µg/ml
T10 peptide: QPMLPQPQPPPPPPP

Epitope 1 [7] = target: T3, Epitope 1; test: peptide microarray; Sp C2; IgG 10 µg/ml
Peptide 30 = target: T11, Peptide 30 (cyno); test: peptide microarray; Sp C2; IgG 10 µg/ml
T11 peptide: MLPQPQPPPPPPPPP

Peptide 3 [8] = target: T4, Peptide 3; test: peptide microarray; Sp C2; IgG 10 µg/ml
Peptide 21 [9] = target: T5, Peptide 21; test: peptide microarray; Sp C2; IgG 10 µg/ml
Peptide 2 [10] = target: T7, Peptide 2; test: peptide microarray; Sp C2; IgG 10 µg/ml
Peptide 34 [11] = target: T12, Peptide 34 (mouse); test: peptide microarray; Sp M; IgG 10 µg/ml
T12 peptide: QQQPPPQAPPPPPPP

Peptide 39 [12] = target: T13, Peptide 39 (mouse); test: peptide microarray; Sp M; IgG 10 µg/ml
T13 peptide: PQAPPPPPPPPPPQP

Peptide 38 [13] = target: T14, Peptide 38 (mouse); test: peptide microarray; Sp M; IgG 10 µg/ml
T14 peptide: PPQAPPPPPPPPPPQ

Peptide 44 [14] = target: T15, Peptide 44 (mouse); test: peptide microarray; Sp M; IgG 10 µg/ml
T15 peptide: PPPQGQPPPPPPPLP

Peptide 43 [15] = target: T16, Peptide 43 (mouse); test: peptide microarray; Sp M; IgG 10 µg/ml
T16 peptide: QPPPQGQPPPPPPPL

Peptide 40 [16] = target: T17, Peptide 40 (mouse); test: peptide microarray; Sp M; IgG 10 µg/ml
T17 peptide: QAPPPPPPPPPPQPP

Peptide 37 [17] = target: T18, Peptide 37 (mouse); test: peptide microarray; Sp M; IgG 10 µg/ml
T18 peptide: PPPQAPPPPPPPPPP

Peptide 42 [18] = target: T19, Peptide 42 (mouse); test: peptide microarray; Sp M; IgG 10 µg/ml
T19 peptide: PQPPPQGQPPPPPPP

Peptide 33 [19] = target: T20, Peptide 33 (mouse); test: peptide microarray; Sp M; IgG 10 µg/ml
T20 peptide: QQQQPPPQAPPPPPP

Peptide 35 [20] = target: T21, Peptide 35 (mouse); test: peptide microarray; Sp M; IgG 10 µg/ml
T21 peptide: QQPPPQAPPPPPPPP

Peptide 32 [21] = target: T22, Peptide 32 (mouse); test: peptide microarray; Sp M; IgG 10 µg/ml
T22 peptide: QQQQQPPPQAPPPPP

Peptide 36 [22] = target: T23, Peptide 36 (mouse); test: peptide microarray; Sp M; IgG 10 µg/ml
T23 peptide: QPPPQAPPPPPPPPP

Peptide 34 [23] = target: T12, Peptide 34; test: peptide microarray; Sp M; IgG 1 µg/ml
Peptide 39 [24] = target: T13, Peptide 39; test: peptide microarray; Sp M; IgG 1 µg/ml
Peptide 38 [25] = target: T14, Peptide 38; test: peptide microarray; Sp M; IgG 1 µg/ml
Peptide 44 [26] = target: T15, Peptide 44; test: peptide microarray; Sp M; IgG 1 µg/ml
Peptide 43 [27] = target: T16, Peptide 43; test: peptide microarray; Sp M; IgG 1 µg/ml
Peptide 40 [28] = target: T17, Peptide 40; test: peptide microarray; Sp M; IgG 1 µg/ml
Peptide 37 [29] = target: T18, Peptide 37; test: peptide microarray; Sp M; IgG 1 µg/ml
Peptide 42 [30] = target: T19, Peptide 42; test: peptide microarray; Sp M; IgG 1 µg/ml
Peptide 33 [31] = target: T20, Peptide 33; test: peptide microarray; Sp M; IgG 1 µg/ml
Peptide 35 [32] = target: T21, Peptide 35; test: peptide microarray; Sp M; IgG 1 µg/ml
Peptide 32 [33] = target: T22, Peptide 32; test: peptide microarray; Sp M; IgG 1 µg/ml
Peptide 36 [34] = target: T23, Peptide 36; test: peptide microarray; Sp M; IgG 1 µg/ml
[35] = target: T24, Mutant Human HTT Exon 1 48Q (GST) (human); test: ELISA
T24 construct: recombinant His- and GST-tagged fusion; also called HTT Exon 1 Q48; 48Q HTT Exon-1
T24 sequence (chain, as listed by the source mutant limits assumed): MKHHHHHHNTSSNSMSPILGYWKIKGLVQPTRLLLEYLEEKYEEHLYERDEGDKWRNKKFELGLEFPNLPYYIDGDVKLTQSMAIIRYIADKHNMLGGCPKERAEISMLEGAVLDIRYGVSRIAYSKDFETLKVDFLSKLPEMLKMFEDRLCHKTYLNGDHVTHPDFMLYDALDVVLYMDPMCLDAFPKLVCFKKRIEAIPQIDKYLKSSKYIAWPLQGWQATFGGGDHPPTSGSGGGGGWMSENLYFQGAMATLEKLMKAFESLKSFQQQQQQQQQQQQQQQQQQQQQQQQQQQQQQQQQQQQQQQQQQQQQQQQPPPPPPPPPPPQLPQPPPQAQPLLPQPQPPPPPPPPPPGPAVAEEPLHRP

B1: ATL_0005335 (antibody, V domains shown)
VH: EVQLVESGGGLVKPGGSLRLSCAASGFTFNKAWMNWVRQAPGKGLEWVGRIKSGIDGGTTDYAAPVQGRFTISRDDSKNTVYLQMNSLNTEDTAVYYCIPPPYYYYYGLDVWGQGTTVTVSS
VL: QSALTQPASVSGSPGQSITISCTGTSSDIGSYNLVSWYQQHPGNAPKPLIYEGSKRPSGVSARFSGSKSGNTASLTISGLQPEDEADYYCSSYAGFNTLVFGGGTKVTVL
notes: human IgG1; also called ATL_5335
corrected fluorescence intensity (Peptide 1 [1]): 381 | corrected fluorescence intensity (Peptide 18): 474 | corrected fluorescence intensity (Epitope 1 [2]): 391 | corrected fluorescence intensity (Peptide 3 [3]): 520 | corrected fluorescence intensity (Peptide 21 [4]): 443 | corrected fluorescence intensity (Peptide 22): 82 | corrected fluorescence intensity (Peptide 2 [5]): 667 | corrected fluorescence intensity (Peptide 4): 536 | corrected fluorescence intensity (Peptide 29): 4680 | corrected fluorescence intensity (Peptide 1 [6]): 7010 | corrected fluorescence intensity (Peptide 28): 2670 | corrected fluorescence intensity (Epitope 1 [7]): 9590 | corrected fluorescence intensity (Peptide 30): 6020 | corrected fluorescence intensity (Peptide 3 [8]): 9510 | corrected fluorescence intensity (Peptide 21 [9]): 448 | corrected fluorescence intensity (Peptide 2 [10]): 8870 | corrected fluorescence intensity (Peptide 34 [11]): 5800 | corrected fluorescence intensity (Peptide 39 [12]): 1880 | corrected fluorescence intensity (Peptide 38 [13]): 3520 | corrected fluorescence intensity (Peptide 44 [14]): 1250 | corrected fluorescence intensity (Peptide 43 [15]): 899 | corrected fluorescence intensity (Peptide 40 [16]): 0 | corrected fluorescence intensity (Peptide 37 [17]): 7370 | corrected fluorescence intensity (Peptide 42 [18]): 2280 | corrected fluorescence intensity (Peptide 33 [19]): 3090 | corrected fluorescence intensity (Peptide 35 [20]): 7820 | corrected fluorescence intensity (Peptide 32 [21]): 286 | corrected fluorescence intensity (Peptide 36 [22]): 8300 | corrected fluorescence intensity (Peptide 34 [23]): 754 | corrected fluorescence intensity (Peptide 39 [24]): 0 | corrected fluorescence intensity (Peptide 38 [25]): 194 | corrected fluorescence intensity (Peptide 44 [26]): 143 | corrected fluorescence intensity (Peptide 43 [27]): 120 | corrected fluorescence intensity (Peptide 40 [28]): 0 | corrected fluorescence intensity (Peptide 37 [29]): 742 | corrected fluorescence intensity (Peptide 42 [30]): 612 | corrected fluorescence intensity (Peptide 33 [31]): 600 | corrected fluorescence intensity (Peptide 35 [32]): 758 | corrected fluorescence intensity (Peptide 32 [33]): 0 | corrected fluorescence intensity (Peptide 36 [34]): 778 | binding result [35]: binds

B2: ATL_0005331 (antibody, V domains shown)
VH: EVQLVESGGGLVKPGGSLRLSCAASGFTFNKAWMNWVRQAPGKGLEWVGRIKSGIDGGTTDYAAPVQGRFTISRDDSKNTVYLQMNSLNTEDTAVYYCIPPPYYYYYGLDVWGQGTTVTVSS
VL: QSALTQPRSVSGSPGQSITISCTGTSSDVGSYNLVSWFQQHPGKAPKLIIYEVNKRPSGVPDRFSGSKSGNTASLTVSGLQAEDEADYYCGSYAGTNNVFGTGTKLTVL
notes: human IgG1; also called ATL_5331; Human IgG1 ATL_0005331
corrected fluorescence intensity (Peptide 1 [1]): 0 | corrected fluorescence intensity (Peptide 18): 137 | corrected fluorescence intensity (Epitope 1 [2]): 195 | corrected fluorescence intensity (Peptide 3 [3]): 206 | corrected fluorescence intensity (Peptide 21 [4]): 182 | corrected fluorescence intensity (Peptide 22): 91 | corrected fluorescence intensity (Peptide 2 [5]): 118 | corrected fluorescence intensity (Peptide 4): 136 | corrected fluorescence intensity (Peptide 29): 2170 | corrected fluorescence intensity (Peptide 1 [6]): 2700 | corrected fluorescence intensity (Peptide 28): 1700 | corrected fluorescence intensity (Epitope 1 [7]): 4580 | corrected fluorescence intensity (Peptide 30): 4250 | corrected fluorescence intensity (Peptide 3 [8]): 4830 | corrected fluorescence intensity (Peptide 21 [9]): 888 | corrected fluorescence intensity (Peptide 2 [10]): 4070 | corrected fluorescence intensity (Peptide 34 [11]): 1540 | corrected fluorescence intensity (Peptide 39 [12]): 842 | corrected fluorescence intensity (Peptide 38 [13]): 825 | corrected fluorescence intensity (Peptide 44 [14]): 1740 | corrected fluorescence intensity (Peptide 43 [15]): 997 | corrected fluorescence intensity (Peptide 40 [16]): 234 | corrected fluorescence intensity (Peptide 37 [17]): 3160 | corrected fluorescence intensity (Peptide 42 [18]): 884 | corrected fluorescence intensity (Peptide 33 [19]): 633 | corrected fluorescence intensity (Peptide 35 [20]): 2410 | corrected fluorescence intensity (Peptide 32 [21]): 0 | corrected fluorescence intensity (Peptide 36 [22]): 2740 | corrected fluorescence intensity (Peptide 34 [23]): 162 | corrected fluorescence intensity (Peptide 39 [24]): 0 | corrected fluorescence intensity (Peptide 38 [25]): 0 | corrected fluorescence intensity (Peptide 44 [26]): 0 | corrected fluorescence intensity (Peptide 43 [27]): 14.5 | corrected fluorescence intensity (Peptide 40 [28]): 0 | corrected fluorescence intensity (Peptide 37 [29]): 180 | corrected fluorescence intensity (Peptide 42 [30]): 41.5 | corrected fluorescence intensity (Peptide 33 [31]): 0 | corrected fluorescence intensity (Peptide 35 [32]): 181 | corrected fluorescence intensity (Peptide 32 [33]): 0 | corrected fluorescence intensity (Peptide 36 [34]): 190 | binding result [35]: binds
